Data reported in the supplement of paper PMC10567573.

B1: HESX1 (parent)
chain: ENKPSTCSFSIERILGLDQKKDCV
B2: EFHC1 (parent)
chain: NIYYYLEDDSMSVIEPVVENSGIL

Variants of: B1
Test: protein stability index of a GFP-peptide fusion (GPS, HEK-293T) (PSI 1-6); higher = more stable
Settings: c terminus: a fixed tail appended
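Note: lentivirally expressed fusions sorted by FACS into six bins by GFP to DsRed ratio, PSI derived from sequencing read proportions per bin multiplied by bin number.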

Variant | protein stability index
D22E | 3.24
D22P | 3.08
D22S | 3.41
D22T | 2.02
D22H | 2.04
D22K | 2.73
D22N | 2.9
D22I | 1.94
D22Q | 2.73
D22F | 2.1
D22L | 1.5
D22G | 2.78
D22W | 1.46
D22V | 1.56
D22Y | 2.14
D22C | 2.12
D22M | 1.77
D22R | 3.08
D22A | 2.51
C23P | 3.29
C23S | 3.45
C23K | 3.41
C23Q | 3.42

Variant | protein stability index
C23E | 3.6
C23N | 3.23
C23T | 3.16
C23F | 2.62
C23L | 2.7
C23H | 3.33
C23R | 3.92
C23M | 2.83
C23V | 3.41
C23G | 3.56
C23A | 3.64
C23D | 4.38
C23I | 2.91
C23Y | 2.46
K21T | 3.19
K21S | 2.95
K21Y | 1.67
K21N | 2.62
K21W | 1.86
K21M | 2.05
K21P | 2.67
K21R | 2.62
K21L | 2.27

Variant | protein stability index
K21V | 2.54
K21I | 1.9
K21Q | 2.93
V24H | 4.64
V24W | 2.18
V24P | 3.14
V24A | 3.81
V24C | 3.49
V24L | 3.03
V24F | 2.91
V24D | 4.18
V24S | 2.88
V24Y | 2.74
V24N | 3.79
V24G | 3.9
V24T | 2.83
V24R | 3.38
V24M | 2.89
V24K | 4.15
V24I | 3.64
V24E | 4.25
V24Q | 3.81

Variants of: B2
Test: as above
Settings: c terminus: a fixed tail appended

Variant | protein stability index
N1L | 1.92
N1K | 1.09
N1T | 1.4
N1A | 2.06
N1C | 1.54
N1G | 2.08
N1D | 1.59
L6C | 2.24
L6T | 2.71
L6S | 2.5
L6K | 2.68
L6V | 2.23
L6R | 2.93
L6M | 2.25
L6E | 2.88
L6P | 4.08
L6N | 3.57
L6D | 3.26
L6W | 1.52
L6I | 2.23
D8E | 1.94
D8F | 2.17
D8Q | 1.91
D8T | 1.83
D8V | 3.11

Variant | protein stability index
D8R | 2.35
D8M | 2.71
D8H | 1.89
D8G | 2.47
D8W | 4.45
I2D | 2.62
I2E | 3.79
I2L | 2.05
I2C | 2.29
I2T | 3.29
I2R | 3.03
I2V | 2.13
I2H | 2.72
I2A | 2.86
I2N | 3.23
I2S | 3.4
I2W | 2.35
I2K | 3.44
I2G | 3.21
E15G | 1.6
E15W | 2.39
E15M | 2.85
E15L | 2.31
E15T | 1.42
E15D | 1.96

Variant | protein stability index
E15H | 1.75
E15R | 1.32
E15Y | 1.02
E15N | 2.79
S12C | 1.61
S12A | 1.98
S12K | 1.85
S12Q | 1.92
S12H | 2.53
S12T | 1.58
S12W | 2.16
S12P | 2.15
S12D | 3.05
S12N | 2.08
S12Y | 1.2
E19F | 1.89
E19A | 1.59
E19I | 1.77
E19G | 1.74
E19S | 1.35
E19Q | 2.16
E19C | 1.39
E19T | 1.66
E19K | 2.23
E19V | 2

Variant | protein stability index
E19P | 2.34
E19Y | 2.53
V17P | 2.85
V17W | 1.94
V17E | 3.08
V17A | 2.1
V17S | 1.88
V17G | 1.95
V17F | 2.88
V17D | 2.6
V17L | 1.74
V17H | 2.15
V17K | 2.31
V17N | 1.76
L24W | 1.4
L24H | 2.31
L24Y | 2.31
L24M | 2.02
L24R | 2.46
L24C | 2.02
L24N | 2.48
L24A | 2.08
L24D | 2.48
D9W | 1.54
